± gives the uncertainty stated by the source.
Test: self-splicing fitness, log relative to wild type (ln ratio); higher = more splicing; Tetrahymena group I intron in knt gene, E. coli kanamycin selection, DiMSum; sequences stand for … in CUCUCU…GGAGGGAAAAGUUAUCAGGCAUGCACCUGGUAGCUAGUCUUUAAACCAAUAGAUUGCAUCGGUUUAAAAGGCAAGACCGUCAAAUUGCGGGAAAGGGGUCAACAGCCGUUCAGUACCAAGUCUCAGGGGAAACUUUGAGAUGGCCUUGCAAAGGGUAUGGUAAUAAGCUGACGGACAUGGUCCUAACCACGCAGCCAAGUCCUAAGUCAACAGAUCUUCUGUUGAUAUGGAUGCAGUUCACAGACUAAAUGUCGGUCGGGGAAGAUGUAUUCUUCUCAUAAGAUAUAGUCGGACCUCUCCUUAAUGGGAGCUAGCGGAUGAAGUGAUGCAACACUGGAGCCGCUGGGAACUAAUUUGUAUGCGAAAGUAUAUUGAUUAGUUUUGGAGUACUCGUGGUCG
Summary of the method: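 Pooled colonies went to amplicon sequencing on an Illumina HiSeq 2500 after six replicate transformations. The plates were LB agar with 100 μg/mL carbenicillin, 50 μM IPTG and 0.2% rhamnose, with or without 25 μg/mL kanamycin, incubated overnight at 37°C or 30°C. The E. coli BL21(DE3) library had all eight P1ex-region intron nucleotides randomised, the intron placed in the knt kanamycin-resistance gene on pET-22b(+). DiMSum fitness is the error-weighted combination of replicate fold changes, kanamycin against none, normalised to wild type.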

| Sequence | self-splicing fitness (ln) (30 °C) | self-splicing fitness (ln) (37 °C) |
| --- | --- | --- |
| CGUUAGCAAUAUUACGGCCA | -1.01 ± 0.29 | -2.55 ± 0.46 |
| CGUUAGCAAUAUUACGGGAG | -3.32 ± 0.2 | -2.39 ± 0.17 |
| CGUUAGCAAUAUUACGGUGC | -3.11 ± 0.23 | -2.59 ± 0.5 |
| CGUUAGCAAUAUUACGGUUA | -1.55 ± 0.21 | -1.66 ± 0.17 |
| CGUUAGCAAUAUUACGGUUC | -3.01 ± 0.38 | -1.83 ± 0.31 |
| CGUUAGCAAUAUUACGUCGG | -0.297 ± 0.1 | 0.0154 ± 0.14 |
| CGUUAGCAAUAUUACGUGAA | -2.48 ± 0.15 | -1.45 ± 0.15 |
| CGUUAGCAAUAUUACGUUUA | -2.86 ± 0.23 | -2.63 ± 0.18 |
| CUAAAGCAAUAUUACGACUC | -4.65 ± 0.46 | -2.38 ± 0.31 |
| CUAAAGCAAUAUUACGAGUA | -3.16 ± 0.3 | -2.73 ± 0.36 |
| CUAAAGCAAUAUUACGAUAU | -3.84 ± 0.19 | -3.13 ± 0.18 |
| CUAAAGCAAUAUUACGCCUC | -3.62 ± 0.21 | -1.85 ± 0.27 |
| CUAAAGCAAUAUUACGCGUG | -1.09 ± 0.075 | 0.243 ± 0.11 |
| CUAAAGCAAUAUUACGCUGC | -3.7 ± 0.47 | -2.53 ± 0.42 |
| CUAAAGCAAUAUUACGGAAU | -3.72 ± 0.24 | -2.14 ± 0.22 |
| CUAAAGCAAUAUUACGGCAU | -3.69 ± 0.27 | -3.09 ± 0.4 |
| CUAAAGCAAUAUUACGGCGC | -2.54 ± 0.21 | -2.38 ± 0.45 |
| CUAAAGCAAUAUUACGGCGG | -0.171 ± 0.064 | 0.0633 ± 0.081 |
| CUAAAGCAAUAUUACGGGCA | -3.06 ± 0.14 | -2.54 ± 0.21 |
| CUAAAGCAAUAUUACGGGUA | -4.44 ± 0.32 | -2.3 ± 0.3 |
| CUAAAGCAAUAUUACGGUGG | -0.649 ± 0.064 | -0.0443 ± 0.08 |
| CUAAAGCAAUAUUACGUCAA | -4.32 ± 0.32 | -2.08 ± 0.28 |
| CUAAAGCAAUAUUACGUCCU | -3.29 ± 0.24 | -1.92 ± 0.26 |
| CUAAAGCAAUAUUACGUCGC | -3.42 ± 0.15 | -2.63 ± 0.23 |

| Sequence | self-splicing fitness (ln) (30 °C) | self-splicing fitness (ln) (37 °C) |
| --- | --- | --- |
| CUAAAGCAAUAUUACGUCUU | -3.95 ± 0.22 | -3.24 ± 0.3 |
| CUAAAGCAAUAUUACGUGUC | -3.88 ± 0.2 | -2.85 ± 0.25 |
| CUAAAGCAAUAUUACGUUUA | -4.12 ± 0.16 | -2.81 ± 0.17 |
| CUACAGCAAUAUUACGACCU | -4.15 ± 0.46 | -0.863 ± 0.17 |
| CUACAGCAAUAUUACGACGG | -0.839 ± 0.063 | -0.265 ± 0.095 |
| CUACAGCAAUAUUACGAGAC | -4.15 ± 0.2 | -2.59 ± 0.16 |
| CUACAGCAAUAUUACGAUCU | -4.26 ± 0.37 | -1.9 ± 0.45 |
| CUACAGCAAUAUUACGCAAU | -3.8 ± 0.4 | -2.86 ± 0.4 |
| CUACAGCAAUAUUACGCCAC | -3.68 ± 0.33 |  |
| CUACAGCAAUAUUACGCCCG | 0.0629 ± 0.15 | -0.112 ± 0.14 |
| CUACAGCAAUAUUACGCCGU | -3.2 ± 0.19 | -2.06 ± 0.29 |
| CUACAGCAAUAUUACGCGAC | -1.03 ± 0.072 | -0.76 ± 0.11 |
| CUACAGCAAUAUUACGCGAU | -2.35 ± 0.095 | -0.252 ± 0.092 |
| CUACAGCAAUAUUACGCGGU | -3.49 ± 0.3 | -2.17 ± 0.28 |
| CUACAGCAAUAUUACGCGUU | -4.43 ± 0.23 | -2.37 ± 0.21 |
| CUACAGCAAUAUUACGCUAA | -2.93 ± 0.28 | -2.29 ± 0.29 |
| CUACAGCAAUAUUACGCUGA | -3.41 ± 0.28 |  |
| CUACAGCAAUAUUACGCUGC | -2.88 ± 0.22 | -1.77 ± 0.35 |
| CUACAGCAAUAUUACGCUUA | -3.44 ± 0.19 | -2.65 ± 0.19 |
| CUACAGCAAUAUUACGGAUC | -4.11 ± 0.3 | -2.51 ± 0.26 |
| CUACAGCAAUAUUACGGGAG | -2.62 ± 0.11 | -1.96 ± 0.12 |
| CUACAGCAAUAUUACGGGUU | -3.18 ± 0.11 | -2.94 ± 0.12 |
| CUACAGCAAUAUUACGGUGG | -4.48 ± 0.21 | -2.71 ± 0.15 |
| CUACAGCAAUAUUACGUCCA | -3.07 ± 0.25 | -1.3 ± 0.24 |
